This is an account of results in IntAct's records for PubMed 12829691.

B1: E3 ubiquitin-protein ligase CBL-B (Homo sapiens), Q13191 (parent)
chain: MANSMNGRNPGGRGGNPRKGRILGIIDAIQDAVGPPKQAAADRRTVEKTWKLMDKVVRLCQNPKLQLKNSPPYILDILPDTYQHLRLILSKYDDNQKLAQLSENEYFKIYIDSLMKKSKRAIRLFKEGKERMYEEQSQDRRNLTKLSLIFSHMLAEIKAIFPNGQFQGDNFRITKADAAEFWRKFFGDKTIVPWKVFRQCLHEVHQISSGLEAMALKSTIDLTCNDYISVFEFDIFTRLFQPWGSILRNWNFLAVTHPGYMAFLTYDEVKARLQKYSTKPGSYIFRLSCTRLGQWAIGYVTGDGNILQTIPHNKPLFQALIDGSREGFYLYPDGRSYNPDLTGLCEPTPHDHIKVTQEQYELYCEMGSTFQLCKICAENDKDVKIEPCGHLMCTSCLTAWQESDGQGCPFCRCEIKGTEPIIVDPFDPRDEGSRCCSIIDPFGMPMLDLDDDDDREESLMMNRLANVRKCTDRQNSPVTSPGSSPLAQRRKPQPDPLQIPHLSLPPVPPRLDLIQKGIVRSPCGSPTGSPKSSPCMVRKQDKPLPAPPPPLRDPPPPPPERPPPIPPDNRLSRHIHHVESVPSRDPPMPLEAWCPRDVFGTNQLVGCRLLGEGSPKPGITASSNVNGRHSRVGSDPVLMRKHRRHDLPLEGAKVFSNGHLGSEEYDVPPRLSPPPPVTTLLPSIKCTGPLANSLSEKTRDPVEEDDDEYKIPSSHPVSLNSQPSHCHNVKPPVRSCDNGHCMLNGTHGPSSEKKSNIPDLSIYLKGDVFDSASDPVPLPPARPPTRDNPKHGSSLNRTPSDYDLLIPPLGEDAFDALPPSLPPPPPPARHSLIEHSKPPGSSSRPSSGQDLFLLPSDPFVDLASGQVPLPPARRLPGENVKTNRTSQDYDQLPSCSDGSQAPARPPKPRPRRTAPEIHHRKPHGPEAALENVDAKIAKLMGEGYAFEEVKRALEIAQNNVEVARSILREFAFPPPVSPRLNL

The variants in this assay derive from B1. To be noted: with sh3k1_human SH3KBP1, Q96B97.
Sequence of sh3k1_human SH3KBP1, Q96B97 (Q96B97 whole entry): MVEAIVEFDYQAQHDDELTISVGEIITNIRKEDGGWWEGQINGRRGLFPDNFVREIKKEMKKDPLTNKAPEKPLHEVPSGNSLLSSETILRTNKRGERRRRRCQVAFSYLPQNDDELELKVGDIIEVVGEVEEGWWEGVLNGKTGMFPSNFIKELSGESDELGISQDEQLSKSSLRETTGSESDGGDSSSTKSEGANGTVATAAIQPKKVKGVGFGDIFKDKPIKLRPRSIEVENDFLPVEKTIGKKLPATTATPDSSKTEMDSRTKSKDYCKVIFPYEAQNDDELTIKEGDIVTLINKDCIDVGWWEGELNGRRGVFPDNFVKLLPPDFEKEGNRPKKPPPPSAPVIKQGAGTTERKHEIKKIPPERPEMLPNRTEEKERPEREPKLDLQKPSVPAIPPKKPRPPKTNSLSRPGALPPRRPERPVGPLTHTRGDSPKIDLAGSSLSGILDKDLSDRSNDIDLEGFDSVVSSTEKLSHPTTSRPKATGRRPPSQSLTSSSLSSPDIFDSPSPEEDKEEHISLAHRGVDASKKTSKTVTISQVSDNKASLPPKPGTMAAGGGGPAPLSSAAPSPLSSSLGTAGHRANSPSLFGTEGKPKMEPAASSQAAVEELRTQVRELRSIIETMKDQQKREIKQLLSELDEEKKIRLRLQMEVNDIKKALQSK
Consider R911A, for which the “effect of a mutation on the interaction” value was “decreasing interaction”.
